Reference: EP4350345A2

Legend:
[1] = target: purified interference factor(s) from serum of Donor A; test: SPR, interference factor on CM5 chip
[2] = target: monoclonal antibody 21-4-3; test: SPR, 21-4-3 captured via anti-mouse IgG, 500 nM
[3] = target: purified interference factor(s) from serum of Donor C; test: SPR, interference factor on CM5 chip
[4] = target: purified interference factor(s) from serum of Donor B; test: SPR, interference factor on CM5 chip

monoclonal antibody 21-4-3, sequence (VH, as listed by the source, chain 1 of 2): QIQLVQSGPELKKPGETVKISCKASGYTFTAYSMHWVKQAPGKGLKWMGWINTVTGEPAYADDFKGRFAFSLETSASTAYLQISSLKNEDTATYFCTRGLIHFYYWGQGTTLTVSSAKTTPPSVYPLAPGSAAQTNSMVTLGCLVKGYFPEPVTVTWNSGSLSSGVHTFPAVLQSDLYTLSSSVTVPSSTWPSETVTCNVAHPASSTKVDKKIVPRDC
monoclonal antibody 21-4-3, sequence (VL, as listed by the source, chain 2 of 2): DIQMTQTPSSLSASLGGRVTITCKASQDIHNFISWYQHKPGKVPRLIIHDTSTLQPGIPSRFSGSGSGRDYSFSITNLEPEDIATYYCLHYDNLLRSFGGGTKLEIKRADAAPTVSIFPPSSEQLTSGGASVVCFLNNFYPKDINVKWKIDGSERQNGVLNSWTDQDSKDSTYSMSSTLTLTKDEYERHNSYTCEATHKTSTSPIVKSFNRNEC

Binder | binding as % of Reference Sequence (=100%) [1] | binding as % of Reference Sequence (=100%) [2] | binding as % of Reference Sequence (=100%) [3] | binding as % of Reference Sequence (=100%) [4]
Nanobody or Nanobody construct of SEQ ID NO: 45 (VHH) VHH: EVQLVESGGGLVQAGGSLRLSCAASRSIGRLDRMGWYRHRTGEPRELVATITGGSSINYGDFVKGRFTISIDNAKNTVYLQMNNLKPEDTAVYYCNFNKYVTSRDTWGQGTQVTVSS | 0% | 22% | – | –
Nanobody or Nanobody construct of SEQ ID NO: 83 (VHH) VHH: EVQLVESGGGLVQPGGSLRLSCAASRSIGRLDRMGWYRHRPGEPRELVATITGGSSINYGDSVKGRFTISIDNSKNTVYLQMNSLRPEDAAVYYCNFNKYVTSRDTWGQGTLVTVSS | 56% | 79% | 61% | 73%
Nanobody or Nanobody construct of SEQ ID NO: 89 (VHH) VHH: EVQLVESGGGSVQAGGSLRLSCAASRSIGRLDRMGWYRHRPGEPRELVATITGGSSINYGDSVKGRFTISIDNSKNTVYLQMNSLRPEDTAVYYCNFNKYVTSRDTWGQGTLVQVGG | 14% | 2% | 17% | 5%
Nanobody or Nanobody construct of SEQ ID NO: 87 (VHH) VHH: EVQLVESGGGSVQPGGSLRLSCAASRSIGRLDRMGWYRHRPGEPRELVATITGGSSINYGDSVKGRFTISIDNSKNTVYLQMNSLRPEDTAVYYCNFNKYVTSRDTWGQGTLVTVGG | 51% | 41% | 39% | 5%
Nanobody or Nanobody construct of SEQ ID NO: 81 (VHH) VHH: EVQLVESGGGVVQPGGSLRLSCAASRSIGRLDRMGWYRHRPGEPRELVATITGGSSINYGDSVKGRFTISIDNSKNTVYLQMNSLRPEDTAVYYCNFNKYVTSRDTWGQGTLVTVSS | 94% | 75% | 89% | 50%
Nanobody or Nanobody construct of SEQ ID NO: 65 (VHH) VHH: EVQLVESGGGLVQAGGSLRLSCAASRSIGRLDRMGWYRHRPGEPRELVATITGGSSINYGDSVKGRFTISIDNSKNTVYLQMNSLRPEDTAVYYCNFNKYVTSRDTWGQGTLVTVSS | 73% | 23% | 64% | 121%
Nanobody or Nanobody construct of SEQ ID NO: 69 (VHH) VHH: EVQLVESGGGLVQPGGSLRLSCAASRSIGRLDRMGWYRHRPGEPRELVATITGGSSINYGDSVKGRFTISIDNSKNTVYLQMNSLRPEDTAVYYCNFNKYVTSRDTWGQGTQVTVSS | 80% | 106% | 84% | 120%
Nanobody or Nanobody construct of SEQ ID NO: 82 (VHH) VHH: EVQLVESGGGLVQPGGSLRLSCAASRSIGRLDRMGWYRHRPGEPRELVATITGGSSINYGDSVKGRFTISIDNSKNTVYLQMNSLRAEDTAVYYCNFNKYVTSRDTWGQGTLVTVSS | 96% | 56% | 100% | 80%
Nanobody or Nanobody construct of SEQ ID NO: 78 (VHH) VHH: EVQLVESGGGLVRPGGSLRLSCAASRSIGRLDRMGWYRHRPGEPRELVATITGGSSINYGDSVKGRFTISIDNSKNTVYLQMNSLRPEDTAVYYCNFNKYVTSRDTWGQGTLVTVSS | 96% | 1% | 100% | 96%
Nanobody or Nanobody construct of SEQ ID NO: 70 (VHH) VHH: EVQLVESGGGLVQPGGSLRLSCAASRSIGRLDRMGWYRHRPGEPRELVATITGGSSINYGDSVKGRFTISIDNSKNTVYLQMNSLRPEDTAVYYCNFNKYVTSRDTWGQGTLVQVSS | 90% | 106% | 98% | 105%
Nanobody or Nanobody construct of SEQ ID NO: 80 (VHH) VHH: EVQLVESGGGLVQPGGSLRLSCAASRSIGRLDRMGWYRHRPGEPRELVATITGGSSINYGDSVKGRFTISIDNSKNTVYLQMNSLRPEDTAVYYCNFNKYVTSRDTWGQGTLVQVGG | 65% | 51% | 58% | 5%
Nanobody or Nanobody construct of SEQ ID NO: 49 (VHH) VHH: EVQLLESGGGLVQPGGSLRLSCAASGLPFSTKSMGWFRQAPGKGREFVSRISPGGTSRYYGDFVKGRFTISRDNSKNTLYLQMNSLRAEDTAVYYCASGERSTYIGSNYYRTNEYDYWGQGTLVTVSS | 0% | 4% | – | –
Nanobody or Nanobody construct of SEQ ID NO: 43 (VHH) DVQLVESGGGLVQPGGSLRLSCAASGFILDYYAIGWFRQAPGKEREGVLCIDASDDITYYADSVKGRFTISRDNSKNTVYLQMNSLRPEDTAVYYCATPIGLSSSCLLEYDYDYWGQGTLVTVSSGGGGSGGGSEVQLLESGGGLVQPGGSLRLSCAASGFTFRSFGMSWVRQAPGKGPEWVSSISGSGSDTLYADSVKGRFTISRDNSKNTLYLQMNSLRPEDTAVYYCTIGGSLSRSSQGTLVTVSSA | 3% | 3% | – | 20%
Nanobody or Nanobody construct of SEQ ID NO: 48 (VHH) VHH: EVQLVESGGGLVQPGGSLRLSCIASGLPFSTKSMGWFRQAPGKEREFVARISPGGTSRYYGDFVKGRFAISRDNAKNTTWLQMNSLKAEDTAVYYCASGERSTYIGSNYYRTNEYDYWGTGTQVTVSS | 0% | 3% | – | –
Nanobody or Nanobody construct of SEQ ID NO: 38 (VHH) EVQLVESGGGLVQPGGSLRLSCAASGFTFSSYAMSWVRQAPGKGLEWVSGIKSSGDSTRYAGSVKGRFTISRDNAKNTLYLQMNSLRPEDTAVYYCAKSRVSRTGLYTYDNRGQGTLVTVSSGGGGSGGGGSGGGGSGGGGSEVQLVESGGGLVQPGGSLRLSCAASGRTFNNYAMGWFRQAPGKEREFVAAITRSGVRSGVSAIYGDSVKDRFTISRDNAKNTLYLQMNSLRPEDTAVYYCAASAIGSGALRRFEYDYSGQGTLVTVSSA | 9% | – | 7% | 25%

The next lines start with the values.

binding as % of Reference Sequence (=100%) [1] | binding as % of Reference Sequence (=100%) [2] | binding as % of Reference Sequence (=100%) [3] | binding as % of Reference Sequence (=100%) [4] | Binder
102% | 101% | 96% | 117% | Nanobody or Nanobody construct of SEQ ID NO: 67 (VHH) VHH: EVQLVESGGGLVQPGGSLRLSCAASRSIGRLDRMGWYRHRPGEPRELVATITGGSSINYGDSVKGRFTISIDNSKNTVYLQMNSLKPEDTAVYYCNFNKYVTSRDTWGQGTLVTVSS
81% | 48% | 84% | 29% | Nanobody or Nanobody construct of SEQ ID NO: 66 (VHH) VHH: EVQLVESGGGSVQPGGSLRLSCAASRSIGRLDRMGWYRHRPGEPRELVATITGGSSINYGDSVKGRFTISIDNSKNTVYLQMNSLRPEDTAVYYCNFNKYVTSRDTWGQGTLVTVSS
38% | 26% | 49% | 115% | Nanobody or Nanobody construct of SEQ ID NO: 68 (VHH) VHH: EVQLVESGGGLVQAGGSLRLSCAASRSIGRLDRMGWYRHRPGEPRELVATITGGSSINYGDSVKGRFTISIDNSKNTVYLQMNSLRPEDTAVYYCNFNKYVTSRDTWGQGTQVTVSS
88% | 44% | 87% | 105% | Nanobody or Nanobody construct of SEQ ID NO: 71 (VHH) VHH: EVQLVESGGGLVQPGGSLRLSCAASRSIGRLDRMGWYRHRPGEPRELVATITGGSSINYGDSVKGRFTISIDNSKNTVYLQMNSLRPEDTAVYYCNFNKYVTSRDTWGQGTLVTVSG
84% | 91% | 83% | 50% | Nanobody or Nanobody construct of SEQ ID NO: 84 (VHH) VHH: EVQLVESGGGLVQPGGSLRLSCAASRSIGRLDRMGWYRHRPGEPRELVATITGGSSINYGDSVKGRFTISIDNSKNTVYLQMNSLRPEDTAVYYCNFNKYVTSRDTWGQGTLVTVGS
1% | 4% | – | – | Nanobody or Nanobody construct of SEQ ID NO: 47 (VHH) VHH: EVQLVESGGGLVQPGGSLRLSCAASGSVFKINVMAWYRQAPGKGRELVAGIISGGSTSYADSVKGRFTISRDNAKNTLYLQMNSLRPEDTAVYYCAFITTESDYDLGRRYWGQGTLVTVSS
46% | 32% | 42% | 5% | Nanobody or Nanobody construct of SEQ ID NO: 85 (VHH) VHH: EVQLVESGGGSVQPGGSLRLSCAASRSIGRLDRMGWYRHRPGEPRELVATITGGSSINYGDSVKGRFTISIDNSKNTVYLQMNSLRPEDTAVYYCNFNKYVTSRDTWGQGTLVQVGG
1% | – | – | 4% | Nanobody or Nanobody construct of SEQ ID NO: 42 (VHH) EVQLVESGGGLVQPGGSLRLSCAASGRTFSYNPMGWFRQAPGKGRELVAAISRTGGSTYYPDSVEGRFTISRDNAKRMVYLQMNSLRAEDTAVYYCAAAGVRAEDGRVRTLPSEYTFWGQGTQVTVSSAAAEVQLVESGGGLVQPGGSLRLSCAASGRTFSYNPMGWFRQAPGKGRELVAAISRTGGSTYYPDSVEGRFTISRDNAKRMVYLQMNSLRAEDTAVYYCAAAGVRAEDGRVRTLPSEYTFWGQGTQVTVSSA
